Reference: patent US20140271457A1 (AbbVie / Abbott, published 2014)
One block for each binder: values may come before it.

Legend:
[1] = molecular target: T1, Recombinant Human TNF-α/TNFSF1A (human, UniProt P01375 77-233); assay: SPR (Biacore)
T1 construct: also called huTNFα

Recombinant Human IL-13 = Recombinant Human IL-13 (human, UniProt P35225 35-146, limits assumed); assay: cell-based or functional assay
Recombinant Human IL-13, sequence (P35225 35-146 limits assumed): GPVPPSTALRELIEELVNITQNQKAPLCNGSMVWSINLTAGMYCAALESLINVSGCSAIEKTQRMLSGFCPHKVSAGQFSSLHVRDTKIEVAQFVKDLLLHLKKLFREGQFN

T1 sequence (P01375 77-233 limits assumed): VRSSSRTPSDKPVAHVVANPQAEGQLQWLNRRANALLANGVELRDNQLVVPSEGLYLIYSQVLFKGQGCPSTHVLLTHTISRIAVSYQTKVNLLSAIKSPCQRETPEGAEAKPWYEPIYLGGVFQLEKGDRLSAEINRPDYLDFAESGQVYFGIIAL

binding result [1]: binds
IL-13 Neutralization Assay IC50 (Recombinant Human IL-13): 81 pM
B1: DVD3168 (bispecific antibody, human IgG1, kappa)
heavy: not shown
light: DIQMTQSPSSLSASVGDRVTITCRASQGIRNYLNWYQQKPGKAPKLLIYYASNLEVGVPSRFSGSGSGTDYTLTISSLQPEDFATYYCQQDNRFPYTFGGGTKVEIKRGGSGGGGSGDIQMTQSPSSLSASVGDRVTITCRASQDISQYLNWYQQKPGKAPKLLIYYTSRLQSGVPSRFSGSGSGTDFTLTISSLQPEDFATYFCQQGNTWPPTFGQGTKLEIKRTVAAPSVFIFPPSDEQLKSGTASVVCLLNNFYPREAKVQWKVDNALQSGNSQESVTEQDSKDSTYSLSSTLTLSKADYEKHKVYACEVTHQGLSSPVTKSFNRGEC
notes: DVD-Ig: outer AB399 (IL-13), inner AB441 (TNF); linkers GS-H10/GS-L10; also called DVD3168H; DVD3168L

binding result [1]: binds
IL-13 Neutralization Assay IC50 (Recombinant Human IL-13): 89 pM
B2: DVD3169 (bispecific antibody, human IgG1, kappa)
heavy: not shown
light: DIQMTQSPSSLSASVGDRVTITCRASQGIRNYLNWYQQKPGKAPKLLIYYASNLEVGVPSRFSGSGSGTDYTLTISSLQPEDFATYYCQQDNRFPYTFGGGTKVEIKRTVAAPDIQMTQSPSSLSASVGDRVTITCRASQDISQYLNWYQQKPGKAPKLLIYYTSRLQSGVPSRFSGSGSGTDFTLTISSLQPEDFATYFCQQGNTWPPTFGQGTKLEIKRTVAAPSVFIFPPSDEQLKSGTASVVCLLNNFYPREAKVQWKVDNALQSGNSQESVTEQDSKDSTYSLSSTLTLSKADYEKHKVYACEVTHQGLSSPVTKSFNRGEC
notes: DVD-Ig: outer AB399 (IL-13), inner AB441 (TNF); linkers HG-short/LK-short; also called DVD3169H; DVD3169L
